Measurements published in patent US20230279126A1 (published 2023).

B1: hIL12Rb1_VHH22 (VHH)
VHH: QVQLQESGGGSVQAGGSLRLSCTASGYTYSSAFMAWFRQAPGKEREGVAAIYTRDGGTVYADSVKGRFTISQDNAKNTLYLQMNSLKAEDTAMYYCAAKIPQPGRASLLDSQTYDYWGQGTQVTVSS
notes: Phagemid clone with his-tag, periplasmic extract
B2: hIL12Rb1_VHH16 (VHH)
VHH: QVQLQESGGGSVQAGGSLRLSCTASGYTYSSAFMAWFRQAPGKEREGVAAMYTRDGGTVYADSVKGRFTISQDNAKNTLYLQIHTLKAEDTAMYYCAAKIPQPGRASLLDSQTYDYWGQGTQVTVSS
notes: as for B1
B3: hIL12Rb1_VHH20 (VHH)
VHH: QVQLQESGGGSVQAGGSLRLSCTASGYTYSSAFMAWFRQAPGKEREGVAAIYTRDGSPVYADSLKGRFTISQDNAKNTLHLQMNSLKPEDTAMYYCAAKIPEPGRISLLDSQTYDYWGHGTQVTVSS
notes: as for B1
B4: hIL12Rb1_VHH2 (VHH)
VHH: QVQLQESGGGSVQAGGSLRLSCTASGYTYSSAFMAWFRQAPGKEREGVAAIYTRDGGTVYADSVKGRFTISQDNAKNILYLQMNSLKAEDTAMYYCAAKIPQPGRASLLDSQTYDYWGQGTQVTVSS
notes: as for B1
B5: hIL12Rb1_VHH21 (VHH)
VHH: QVQLQESGGGSVQAGGSLRLSCTASGYTYSSAFMAWFRQAPGKEREGVAAMYTRDGGTVYADSVKGRFTISQDNAKNTLYLQMNSLKTEDTAMYYCAAKIPQPGRASLLDSQTYDYWGQGTQVTVSS
notes: as for B1
B6: hIL12Rb1_VHH12 (VHH)
VHH: QVQLQESGGGSVQAGGSLRLSCTASGYTYSSAFMAWFRQAPGKEREGVAAIYTRDGGTVYADSVKGRFTISQDNAKNTLYLQMNSLKPEDTAMYYCAAKMPQPGRASLLDSQTYDYWGQGTQVTVSS
notes: as for B1
B7: hIL12Rb1_VHH3 (VHH)
VHH: QVQLQESGGGSVQAGGSLRLSCVASGYSYCGYDMMWYRQAPGKEREFVALITSDYSIRYEDSVEGRFSISRDNAKNTGYLLMSNLTPADTAIYYCKTSTAARESSWCRSRYRVASWGQGTQVTVSS
notes: as for B1
B8: hIL12Rb1_VHH8 (VHH)
VHH: QVQLQESGGGSVQAGGSLRLSCVASGYSYCGYDMMWYRQAPGKEREFVALITSDYSIRYEDSVEGRFSISRDNAKNTGYLLMSNLTPADTAIYYCKTSTAARESSWCRSRYRVASWGQGTQVTVSS
notes: as for B1
B9: hIL12Rb1_VHH9 (VHH)
VHH: QVQLQESGGGSVQAGGSLRLSCVASGYSYCGYDMMWYRQAPGKEREFVALITSDYSIRYEDSVEGRFSISRDNAKNTGYLLMSNLTPADTAIYYCKTSTAARESGWCRSRYRVASWGQGTQVTVSS
notes: as for B1
B10: hIL12Rb1_VHH10 (VHH)
VHH: QVQLQESGGGSVQAGGSLRLSCAVSGYDYCGYDVRWYRQAPGKEREFVSGIDSDGSTSYADSVKGRFTISQDNAENTSYLHMFSLKPEDTAMYYCKTESPAGESAWCRNFRGMDYWGKGTQVTVSS
notes: as for B1
B11: hIL12Rb1_VHH11 (VHH)
VHH: QVQLQESGGGSVQAGGSLRLSCAVSGYDYCGYDVRWYRQAPGKEREFVSGIDSDGSTSYADSVKGRFTISQDNAENTSYLHMFSLKPEDTAMYYCKTESPAGESAWCRNFRGMDYWGKGTQVTVSS
notes: as for B1
B12: hIL12Rb1_VHH7 (VHH)
VHH: QVQLQESGGGSVQAGGSLRLSCAVSGYDYCGYDVRWYRRAPGKEREFVSGIDSDGSTSYADSVKGRFTISQDNAENTSYLHMFSLKPEDTAMYYCKTESPAGESAWCRNFRGMDYWGKGTQVTVSS
notes: as for B1
B13: hIL12Rb1_VHH19 (VHH)
VHH: QVQLQESGGGSVQAGGSLRLSCAVSGYDYCGYDVRWYRQAPGKEREFVSGINSDGSTSYADSVKGRFTISQDNAENTSYLHMFSLKPEDTAMYYCKTEGPAGESAWCRNFRGMDYWGKGTQVTVSS
notes: as for B1
B14: hIL12Rb1_VHH14 (VHH)
VHH: QVQLQESGGGSVQAGGSLRLSCAVSGYDYCGYDVRWYRRAPGKEREFVSGIDSDGSTSYADSVKGRFTISQDNAENTSYLHMFSLKPEDTAMYYCKTESPAGESAWCRNFRGMDYWGKGTQVTVSS
notes: as for B1
B15: hIL12Rb1_VHH15 (VHH)
VHH: QVQLQESGGGSVQAGGSLRLSCAVSGYDYCGYDVRWYRQAPGKEREFVSGINSDGSTSYADSVKGRFTISQDNAENTSYLHMFSLKPEDTAMYYCKTESPAGESAWCRNFRGMDYWGKGTQVTVSS
notes: as for B1
B16: hIL12Rb1_VHH6 (VHH)
VHH: QVQLQESGGGSVQAGGSLRLSCAASRYTYTNNFMAWFRQAPGKEREGVAAIYTGDGYAYYFYSVKGRFTISQDNDENMLYLQMNSLKPEDTAMYYCAAMERRIGTRRMTENAEYKYWGQGTQVTVSS
notes: as for B1
B17: hIL12Rb1_VHH18 (VHH)
VHH: QVQLQESGGGSVQAGGSLRLSCAASRYTYTNNFMAWFRQAPGKEREGVAAIYTGDGYAYYFDSVKGRFTISQDNDKNMLYLQMNSLKPEDTAMYYCAAMERRSGRRRMTENAEYKYWGQGTQVTVSS
notes: as for B1
B18: hIL12Rb1_VHH17 (VHH)
VHH: QVQLQESGGGSVQAGGFLRLSCVASGYGYCGYDMSWYRQVPGKEREFVALITSDRSVSYEDSVKGRFSISRDNAKNTAYLEMNRLTPDDTAIYYCKTSTAARENNWCRSRYRIASWGQGTQVTVSS
notes: as for B1
B19: hIL12Rb1_VHH4 (VHH)
VHH: QVQLQESGGGSVQAGGSLRLSCVASGYGYCGYDMSWYRQTPGKEREFVALITSDRIASYEDSVKGRFIISRDNAKNTGYLDMTRVTPDDTAIYYCKTSAAARENSWCRSRYRVASWGQGTQVTVSS
notes: as for B1
B20: hIL12Rb1_VHH5 (VHH)
VHH: QVQLQESGGGSVQAGGFLRLSCVASGYGYCGYDMSWYRQVPGKEREFVALITSDRSVSYEDSVKGRFSISRDNAKNTAYLEMNRLTPDDTAVYYCKTSTAARENNWCRSRYRIAYWGQGTQVTVSS
notes: as for B1
B21: hIL12Rb1_VHH13 (VHH)
VHH: QVQLQESGGGSVQAGGFLRLSCVASGYGYCGYDMSWYRQAPGKEREFVALITSERVISYEDSVKGRFSISRDNAENTGYLEMNRLTPDDTAIYYCKTSAAARESSWCRSRYRVASWGQGTQVTVSS
notes: as for B1

What follows are binders tested against T1, extracellular domain of human IL12RB1 (hIL12Rb1 ECD) (human, UniProt P42701 24-545) (assay: periplasmic extract ELISA (PE-ELISA) of phage clones, colorimetric).
T1 construct: The immunogen was a fusion of the ECD with the human IgG1 hinge and Fc; also called IL12Rβ1; CD212
In short: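 VHH domains were obtained from camels immunized sequentially with human and mouse receptor extracellular domain–Fc fusion proteins, then cloned with a his-tag into a phagemid in E. coli. The phage library was panned over several rounds on the human or mouse extracellular domain, and single clones were checked for selective binding by colorimetric periplasmic extract ELISA.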

Does B1 bind?
Result: binds

Does B2 bind?
Result: binds

Does B3 bind?
Result: binds

Does B4 bind?
Result: binds

Does B5 bind?
Result: binds

Does B6 bind?
Result: binds

Does B7 bind?
Result: binds

Does B8 bind?
Result: binds

Does B9 bind?
Result: binds

Does B10 bind?
Result: binds

Does B11 bind?
Result: binds

Does B12 bind?
Result: binds

Does B13 bind?
Result: binds

Does B14 bind?
Result: binds

Does B15 bind?
Result: binds

Does B16 bind?
Result: binds

Does B17 bind?
Result: binds

Does B18 bind?
Result: binds

Does B19 bind?
Result: binds

Does B20 bind?
Result: binds

Does B21 bind?
Result: binds
